Measurements from PMC8413892.
Read-outs that look alike come from different tables or passages of the source.

How the values were obtained:
Kir1.1 channel (human) [1] = target: Kir1.1 channel (human) (UniProt P48048)
Kir4.1 channel (human) [2] = target: Kir4.1 channel (human) (UniProt P78508)
Kir1.1 channel (human) [3] = target: Kir1.1 channel (human) (UniProt P48048); remark: listed apart in the source
Kir4.1 channel (human) [4] = target: Kir4.1 channel (human) (UniProt P78508); remark: listed apart in the source

UniProt P78508, sequence (P78508 whole entry): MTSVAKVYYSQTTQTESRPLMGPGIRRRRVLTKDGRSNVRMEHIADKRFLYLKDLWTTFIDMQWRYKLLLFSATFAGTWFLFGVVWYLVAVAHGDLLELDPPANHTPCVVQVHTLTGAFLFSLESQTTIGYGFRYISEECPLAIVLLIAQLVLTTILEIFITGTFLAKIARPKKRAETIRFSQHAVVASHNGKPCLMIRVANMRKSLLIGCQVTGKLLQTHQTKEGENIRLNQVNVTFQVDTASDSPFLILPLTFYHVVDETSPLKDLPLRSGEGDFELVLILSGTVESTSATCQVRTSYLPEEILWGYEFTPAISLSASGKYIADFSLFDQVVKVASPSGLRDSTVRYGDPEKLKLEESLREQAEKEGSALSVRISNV
UniProt P48048, sequence (P48048 whole entry): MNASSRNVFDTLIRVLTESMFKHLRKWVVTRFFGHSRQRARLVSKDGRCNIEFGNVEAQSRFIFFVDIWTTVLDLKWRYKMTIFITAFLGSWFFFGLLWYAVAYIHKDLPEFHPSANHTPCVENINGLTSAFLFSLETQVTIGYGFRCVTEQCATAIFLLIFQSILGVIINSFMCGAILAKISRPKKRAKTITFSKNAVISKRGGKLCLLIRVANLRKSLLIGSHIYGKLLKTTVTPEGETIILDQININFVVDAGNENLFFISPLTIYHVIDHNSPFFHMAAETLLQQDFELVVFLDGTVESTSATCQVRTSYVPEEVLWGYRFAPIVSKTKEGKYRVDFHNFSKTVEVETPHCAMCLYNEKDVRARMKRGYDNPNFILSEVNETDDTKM

Substance | IC50 of inhibition of Kir1.1 currents at −40 mV, whole-cell patch clamp, HEK293T (Kir1.1 channel (human) [1]) | IC50 of inhibition of Kir4.1 currents at −40 mV, whole-cell patch clamp, HEK293T (Kir4.1 channel (human) [2]) | IC50 of inhibition of Kir1.1 currents at −40 mV, whole-cell patch clamp, HEK293T (Kir1.1 channel (human) [3]) | IC50 of inhibition of Kir4.1 currents at −40 mV, whole-cell patch clamp, HEK293T (Kir4.1 channel (human) [4])
native SsTx-4 (peptide) | 0.21 µM | 6.2 µM | – | –
recombinant SsTx-4 (peptide) | – | – | 0.0604 µM | 5.6 µM
